For 2 substances, Kd results are on record in article PMC8726686.

The term Kd denotes the concentration at which binding is half-saturated.

Test [1] deals with JS016-WT (wild-type control antibody). The experiment in a line: BLI. In general terms: BLI is a label-free optical method that tracks binding on a fibre tip over time.
The target in test [2] is Fc gamma receptor Type IIIa, FcγRIIIa (F176) (human) (UniProt P08637). The experiment in a line: BLI.
UniProt P08637, sequence (P08637 17-254): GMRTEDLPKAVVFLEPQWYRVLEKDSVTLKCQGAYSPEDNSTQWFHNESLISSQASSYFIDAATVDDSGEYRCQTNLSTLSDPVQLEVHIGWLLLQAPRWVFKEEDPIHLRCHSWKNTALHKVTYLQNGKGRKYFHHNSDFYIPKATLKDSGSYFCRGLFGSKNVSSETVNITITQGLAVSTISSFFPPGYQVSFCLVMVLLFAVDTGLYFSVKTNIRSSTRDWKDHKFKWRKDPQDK

On to “C1q (first subcomponent of the C1 complex)”, for which the Kd in test [1] is 2.12 nM.
As to JS016-WT (wild-type control antibody), the Kd in test [2] is 2000 nM.
